The values that follow come from paper PMC11074293 (Nature Communications, 2024).

Series [1] deals with the molecule itself. Nature of the series: SEC-MALS; WTC-015S5 column, low salt buffer; complexes at 2 mg/ml, KLHL22^1–178 and KLHL12^1–161 alone at 3 mg/ml. A general note: Size exclusion chromatography separates by hydrodynamic size, large species first.
Series [2] concerns the target T1, CUL3^WT-RBX1 (human, UniProt Q13618 1-768; P62877 1-108).
T1 construct: Cullin-3 (CUL3), human, full length; also called CUL3-RBX1; (CUL3-His6)-RBX1; source: SF9 insect cells, co-expressed from pFastbac-dual, purified (Ni-IDA, SEC); copies: 1 + 1
Nature of the series: SEC; analytical SEC, Superdex 200 Increase 10/300 GL, 20 mM Tris-HCl pH 8.0, 150 mM NaCl, 1% glycerol, 1 mM TCEP; purified proteins mixed 1:1 (also 2:1 and 4:1 CUL3-RBX1 to BTB protein), 10 min on ice. As to conditions: both partners purified.

For series [3], the target named is T2, CUL3^Δ1–13-RBX1 (human, UniProt Q13618 14-768; P62877 1-108).
T2 construct: Cullin-3 (CUL3), human, residues 1-13 deleted (partial deletion of the NA motif); RBX1, human, without a tag; source: purified; host stated only for wild-type CUL3-RBX1 (SF9); copies: 1 + 1
Described as above. The settings on record: both partners purified.

The target in series [4] is T3, CUL3^Δ1–24-RBX1 (human, UniProt Q13618 25-768; P62877 1-108).
T3 construct: Cullin-3 (CUL3), human, residues 1-24 (the whole NA motif) deleted; RBX1, human, without a tag; source: purified; host stated only for wild-type CUL3-RBX1 (SF9); copies: 1 + 1
The description is as above. The settings on record: both partners purified.

Series [5] deals with the molecule itself. The experiment in a line: cryo-EM structure; full-length CUL3-RBX1-KLHL22 co-expressed in SF9, purified, GraFix (glutaraldehyde gradient); C2 symmetry, 3.8 Å overall, 3.3 Å for the dimer assembly region.
In series [6] the target is T1, CUL3^WT-RBX1. The experiment in a line: ITC; ITC200; CUL3-RBX1 (120 μM) in the syringe titrated into KLHL22^1–178 (10 μM) in the cell, 25 °C, one-site model; repeated with KLHL22^1–178 (120 μM) into CUL3-RBX1 (12 μM). The settings on record: both partners purified. A general note: ITC needs no label: the signal is the heat of the interaction.
The target of series [7] is T2, CUL3^Δ1–13-RBX1. The description is as above. As to conditions: both partners purified.
The target of series [8] is T3, CUL3^Δ1–24-RBX1. The series is described as above. The settings on record: both partners purified.

T1 sequence (Q13618 whole entry, chain 1 of 2): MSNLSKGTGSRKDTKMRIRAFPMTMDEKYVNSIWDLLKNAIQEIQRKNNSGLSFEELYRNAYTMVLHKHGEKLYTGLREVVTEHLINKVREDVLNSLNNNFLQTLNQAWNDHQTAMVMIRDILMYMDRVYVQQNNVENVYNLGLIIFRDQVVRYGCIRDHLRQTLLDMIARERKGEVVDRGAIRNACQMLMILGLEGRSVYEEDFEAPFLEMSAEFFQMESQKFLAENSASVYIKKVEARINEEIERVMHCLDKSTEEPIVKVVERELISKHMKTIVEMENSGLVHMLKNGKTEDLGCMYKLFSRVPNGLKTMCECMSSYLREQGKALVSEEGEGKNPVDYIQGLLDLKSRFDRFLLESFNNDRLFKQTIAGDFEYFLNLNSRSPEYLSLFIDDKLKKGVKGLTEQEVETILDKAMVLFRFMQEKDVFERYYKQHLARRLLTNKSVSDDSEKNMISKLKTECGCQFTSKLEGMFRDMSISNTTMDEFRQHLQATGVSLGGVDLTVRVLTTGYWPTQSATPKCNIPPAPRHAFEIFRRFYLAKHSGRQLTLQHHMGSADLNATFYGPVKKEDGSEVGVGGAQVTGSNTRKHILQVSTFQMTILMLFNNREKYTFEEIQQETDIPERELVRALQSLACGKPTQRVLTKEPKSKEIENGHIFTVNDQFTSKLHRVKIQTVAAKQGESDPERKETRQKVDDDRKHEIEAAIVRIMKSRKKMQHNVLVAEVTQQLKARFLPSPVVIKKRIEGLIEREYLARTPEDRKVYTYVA
T1 sequence (P62877 whole entry, chain 2 of 2): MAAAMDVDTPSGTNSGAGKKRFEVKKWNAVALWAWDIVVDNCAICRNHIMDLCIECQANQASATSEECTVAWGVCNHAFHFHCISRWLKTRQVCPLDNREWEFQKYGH
T2 sequence (Q13618 14-768, stated change not applied, chain 1 of 2): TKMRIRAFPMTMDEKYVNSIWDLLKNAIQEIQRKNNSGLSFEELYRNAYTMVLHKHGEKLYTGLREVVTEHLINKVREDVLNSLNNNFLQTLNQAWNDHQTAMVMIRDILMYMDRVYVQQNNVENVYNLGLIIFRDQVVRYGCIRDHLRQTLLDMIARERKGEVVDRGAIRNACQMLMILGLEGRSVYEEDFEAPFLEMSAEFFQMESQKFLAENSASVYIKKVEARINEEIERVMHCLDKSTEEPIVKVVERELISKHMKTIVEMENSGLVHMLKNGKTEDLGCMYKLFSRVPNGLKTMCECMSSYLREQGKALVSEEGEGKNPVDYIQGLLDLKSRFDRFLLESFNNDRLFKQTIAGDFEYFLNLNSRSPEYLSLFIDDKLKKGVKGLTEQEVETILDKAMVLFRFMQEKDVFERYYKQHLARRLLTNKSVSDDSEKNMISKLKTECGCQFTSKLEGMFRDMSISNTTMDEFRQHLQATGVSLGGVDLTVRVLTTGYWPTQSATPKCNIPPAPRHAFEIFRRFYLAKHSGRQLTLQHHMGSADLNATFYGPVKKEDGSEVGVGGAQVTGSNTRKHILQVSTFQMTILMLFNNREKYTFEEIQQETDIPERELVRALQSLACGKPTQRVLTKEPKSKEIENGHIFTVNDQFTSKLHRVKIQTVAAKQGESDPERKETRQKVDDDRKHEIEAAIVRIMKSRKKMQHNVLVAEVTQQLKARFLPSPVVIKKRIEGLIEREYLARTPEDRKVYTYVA
T2 sequence (P62877 whole entry, stated change not applied, chain 2 of 2, the tested form may be a part): as the sequence (P62877 whole entry, chain 2 of 2) above
T3 sequence (Q13618 25-768, stated change not applied, chain 1 of 2): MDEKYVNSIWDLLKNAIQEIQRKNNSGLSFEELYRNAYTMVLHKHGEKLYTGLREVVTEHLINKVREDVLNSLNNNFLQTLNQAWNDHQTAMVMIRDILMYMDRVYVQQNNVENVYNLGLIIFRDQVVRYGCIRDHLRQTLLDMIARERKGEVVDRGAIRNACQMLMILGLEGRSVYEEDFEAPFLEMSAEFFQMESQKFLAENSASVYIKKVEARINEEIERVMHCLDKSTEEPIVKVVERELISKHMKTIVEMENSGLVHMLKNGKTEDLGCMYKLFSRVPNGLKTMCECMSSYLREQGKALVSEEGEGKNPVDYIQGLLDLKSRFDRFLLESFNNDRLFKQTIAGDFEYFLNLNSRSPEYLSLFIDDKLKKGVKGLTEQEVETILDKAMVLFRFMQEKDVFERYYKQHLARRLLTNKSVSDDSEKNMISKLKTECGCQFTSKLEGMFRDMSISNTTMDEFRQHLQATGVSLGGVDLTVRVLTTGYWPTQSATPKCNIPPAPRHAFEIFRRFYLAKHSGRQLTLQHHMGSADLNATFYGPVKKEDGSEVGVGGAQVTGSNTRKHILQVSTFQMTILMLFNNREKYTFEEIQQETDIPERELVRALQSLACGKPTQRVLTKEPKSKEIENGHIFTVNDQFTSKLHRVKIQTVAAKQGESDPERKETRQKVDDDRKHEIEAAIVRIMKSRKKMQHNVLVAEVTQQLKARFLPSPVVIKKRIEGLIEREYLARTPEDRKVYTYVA
T3 sequence (P62877 whole entry, stated change not applied, chain 2 of 2, the tested form may be a part): as the sequence (P62877 whole entry, chain 2 of 2) above

B1: KLHL12^1–161 (domain or fragment, human, UniProt Q53G59 1-161, looked up)
chain: MGGIMAPKDIMTNTHAKSILNSMNSLRKSNTLCDVTLRVEQKDFPAHRIVLAACSDYFCAMFTSELSEKGKPYVDIQGLTASTMEILLDFVYTETVHVTVENVQELLPAACLLQLKGVKQACCEFLESQLDPSNCLGIRDFAETHNCVDLMQAAEVFSQKH
notes: TEV site ENLYFQG: a residue of the site may be left at the N-terminus after cleavage; source: E. coli BL21(DE3), purified (Ni-IDA, SEC), His-MBP tag removed with TEV protease; not shown: His6, N-terminal, cleaved; MBP, N-terminal, cleaved
As for B1, the “stoichiometry N” value in series [1] came out at 2. Also, the binding result in the series with CUL3^WT-RBX1 [2], with CUL3^Δ1–13-RBX1 [3] and with CUL3^Δ1–24-RBX1 [4] was “binds” throughout.

B2: KLHL22 (full length, N-terminal His6) (natural protein, human, UniProt Q53GT1 1-634, looked up)
chain: MAEEQEFTQLCKLPAQPSHPHCVNNTYRSAQHSQALLRGLLALRDSGILFDVVLVVEGRHIEAHRILLAASCDYFRGMFAGGLKEMEQEEVLIHGVSYNAMCQILHFIYTSELELSLSNVQETLVAACQLQIPEIIHFCCDFLMSWVDEENILDVYRLAELFDLSRLTEQLDTYILKNFVAFSRTDKYRQLPLEKVYSLLSSNRLEVSCETEVYEGALLYHYSLEQVQADQISLHEPPKLLETVRFPLMEAEVLQRLHDKLDPSPLRDTVASALMYHRNESLQPSLQSPQTELRSDFQCVVGFGGIHSTPSTVLSDQAKYLNPLLGEWKHFTASLAPRMSNQGIAVLNNFVYLIGGDNNVQGFRAESRCWRYDPRHNRWFQIQSLQQEHADLSVCVVGRYIYAVAGRDYHNDLNAVERYDPATNSWAYVAPLKREVYAHAGATLEGKMYITCGRRGEDYLKETHCYDPGSNTWHTLADGPVRRAWHGMATLLNKLYVIGGSNNDAGYRRDVHQVACYSCTSGQWSSVCPLPAGHGEPGIAVLDNRIYVLGGRSHNRGSRTGYVHIYDVEKDCWEEGPQLDNSISGLAACVLTLPRSLLLEPPRGTPDRSQADPDFASEVMSVSDWEEFDNSSED
notes: Kelch-like protein 22 (KLHL22), human, full length; Dimer in the cryo-EM structure of CRL3^KLHL22; also called His6-KLHL22
On to B2, for which the binding result in series [5] was “binds”.

B3: KLHL22^1–178 (domain or fragment, human, UniProt Q53GT1 1-178, looked up)
chain: MAEEQEFTQLCKLPAQPSHPHCVNNTYRSAQHSQALLRGLLALRDSGILFDVVLVVEGRHIEAHRILLAASCDYFRGMFAGGLKEMEQEEVLIHGVSYNAMCQILHFIYTSELELSLSNVQETLVAACQLQIPEIIHFCCDFLMSWVDEENILDVYRLAELFDLSRLTEQLDTYILKN
notes: as for B1
Consider B3, for which the “stoichiometry N” value in series [1] is 2. Further, the values for the Kd with CUL3^WT-RBX1 [6], with CUL3^Δ1–13-RBX1 [7] and with CUL3^Δ1–24-RBX1 [8] were roughly 27 nM, roughly 87 nM and roughly 383 nM, respectively.

As usually defined, the stoichiometry N is a count of units in the complex or per binding partner. One may read the Kd as a measure of binding affinity in units of concentration. Low values mean higher affinity, high ones lower affinity.
